Source: paper PMC10516938, “Conformational dynamics of cohesin/Scc2 loading complex are regulated by Smc3 acetylation and ATP binding” (Nature Communications, 2023)
Where a chain is given by its changes, count along the chain named.

Legend:
Experiment in all cases: cross-linking; in vivo BMOE cross-link of cysteine pairs in exponentially grown yeast cells (on ice, 6 min); Scc1-PK immunoprecipitated, western blot
Conditions in all cases: partners not purified
[1] = molecular target: T1, Smc3 R1222C (S. cerevisiae, UniProt P47037 1-1230, R1222C)
T1 construct: Smc3, S. cerevisiae; source: S. cerevisiae W303, in vivo, whole-cell extract
T1 sequence (looked up): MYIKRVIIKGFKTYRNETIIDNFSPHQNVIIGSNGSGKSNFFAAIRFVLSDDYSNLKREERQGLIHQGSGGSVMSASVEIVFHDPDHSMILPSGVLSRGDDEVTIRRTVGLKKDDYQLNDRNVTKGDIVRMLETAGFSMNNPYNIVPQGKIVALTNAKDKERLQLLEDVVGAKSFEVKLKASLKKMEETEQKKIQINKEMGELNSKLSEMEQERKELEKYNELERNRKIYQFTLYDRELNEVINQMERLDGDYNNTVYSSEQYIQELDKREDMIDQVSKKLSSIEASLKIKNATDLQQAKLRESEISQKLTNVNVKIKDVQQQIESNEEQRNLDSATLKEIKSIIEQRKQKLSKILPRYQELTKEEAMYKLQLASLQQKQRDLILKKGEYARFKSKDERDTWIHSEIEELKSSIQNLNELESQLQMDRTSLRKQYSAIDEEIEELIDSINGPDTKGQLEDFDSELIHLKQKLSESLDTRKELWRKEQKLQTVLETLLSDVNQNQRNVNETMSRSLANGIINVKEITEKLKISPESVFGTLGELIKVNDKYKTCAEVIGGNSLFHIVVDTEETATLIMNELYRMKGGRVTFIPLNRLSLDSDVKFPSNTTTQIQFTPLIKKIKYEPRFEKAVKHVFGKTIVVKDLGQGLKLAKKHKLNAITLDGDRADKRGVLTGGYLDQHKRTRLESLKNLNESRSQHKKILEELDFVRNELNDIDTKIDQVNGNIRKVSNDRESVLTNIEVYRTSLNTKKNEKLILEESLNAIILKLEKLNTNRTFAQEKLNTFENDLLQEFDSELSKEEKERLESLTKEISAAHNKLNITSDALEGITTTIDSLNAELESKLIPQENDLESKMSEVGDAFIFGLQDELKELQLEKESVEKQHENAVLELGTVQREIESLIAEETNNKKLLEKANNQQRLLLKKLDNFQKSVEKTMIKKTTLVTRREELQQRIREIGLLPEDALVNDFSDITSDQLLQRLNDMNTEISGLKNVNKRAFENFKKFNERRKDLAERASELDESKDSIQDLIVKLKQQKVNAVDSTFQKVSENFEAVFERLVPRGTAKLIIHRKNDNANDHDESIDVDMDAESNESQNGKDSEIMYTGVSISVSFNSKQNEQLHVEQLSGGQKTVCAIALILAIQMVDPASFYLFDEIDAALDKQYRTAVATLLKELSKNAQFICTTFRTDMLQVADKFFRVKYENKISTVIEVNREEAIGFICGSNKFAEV

[2] = molecular target: T2, Smc3^QQ R1222C (S. cerevisiae, UniProt P47037 1-1230, K112Q | K113Q | R1222C)
T2 construct: Smc3, S. cerevisiae; source: S. cerevisiae W303, in vivo, whole-cell extract
T2 sequence (looked up): T1 sequence (looked up) with K112Q, K113Q

[3] = molecular target: T3, Smc3 K38I R1222C (S. cerevisiae, UniProt P47037 1-1230, K38I | R1222C)
T3 construct: source: S. cerevisiae W303, in vivo, whole-cell extract
T3 sequence (looked up): T1 sequence (looked up) with K38I

B1: Smc1 N1192C (natural protein, S. cerevisiae, UniProt P32908 1-1225, looked up)
chain: MGRLVGLELSNFKSYRGVTKVGFGESNFTSIIGPNGSGKSNMMDAISFVLGVRSNHLRSNILKDLIYRGVLNDENSDDYDNEGAASSNPQSAYVKAFYQKGNKLVELMRIISRNGDTSYKIDGKTVSYKDYSIFLENENILIKAKNFLVFQGDVEQIAAQSPVELSRMFEEVSGSIQYKKEYEELKEKIEKLSKSATESIKNRRRIHGELKTYKEGINKNEEYRKQLDKKNELQKFQALWQLYHLEQQKEELTDKLSALNSEISSLKGKINNEMKSLQRSKSSFVKESAVISKQKSKLDYIFKDKEKLVSDLRLIKVPQQAAGKRISHIEKRIESLQKDLQRQKTYVERFETQLKVVTRSKEAFEEEIKQSARNYDKFKLNENDLKTYNCLHEKYLTEGGSILEEKIAVLNNDKREIQEELERFNKRADISKRRITEELSITGEKLDTQLNDLRVSLNEKNALHTERLHELKKLQSDIESANNQEYDLNFKLRETLVKIDDLSANQRETMKERKLRENIAMLKRFFPGVKGLVHDLCHPKKEKYGLAVSTILGKNFDSVIVENLTVAQECIAFLKKQRAGTASFIPLDTIETELPTLSLPDSQDYILSINAIDYEPEYEKAMQYVCGDSIICNTLNIAKDLKWKKGIRGKLVTIEGALIHKAGLMTGGISGDANNRWDKEEYQSLMSLKDKLLIQIDELSNGQRSNSIRAREVENSVSLLNSDIANLRTQVTQQKRSLDENRLEIKYHNDLIEKEIQPKITELKKKLDDLENTKDNLVKEKEALQNNIFKEFTSKIGFTIKEYENHSGELMRQQSKELQQLQKQILTVENKLQFETDRLSTTQRRYEKAQKDLENAQVEMKSLEEQEYAIEMKIGSIESKLEEHKNHLDELQKKFVTKQSELNSSEDILEDMNSNLQVLKRERDGIKEDIEKFDLERVTALKNCKISNINIPISSETTIDDLPISSTDNEAITISNSIDINYKGLPKKYKENNTDSARKELEQKIHEVEEILNELQPNARALERYDEAEGRFEVINNETEQLKAEEKKILNQFLKIKKKRKELFEKTFDYVSDHLDAIYRELTKNPNSNVELAGGNASLTIEDEDEPFNAGIKYHATPPLKRFKDMEYLSGGEKTVAALALLFAINSYQPSPFFVLDEVDAALDITNVQRIAAYIRRHRNPDLQFIVISLKCTMFEKSDALVGVYRQQQENSSKIITLDLSNYAE
notes: Smc1, S. cerevisiae; source: S. cerevisiae W303, in vivo, whole-cell extract
**Q.** With B1 as the binder, how does the crosslinking efficiency [1] read?
**A.** ~23%

**Q.** And the crosslinking efficiency [2]?
**A.** 24%

**Q.** What about the crosslinking efficiency [3] of the same binder?
**A.** 5%
